Results taken from FireProtDB (doi:10.1093/protein/12.6.497).

Conditions: Sus scrofa, pH 7, 20 °C, GdnHCl, Fluorescence, PIPES 50 mM, reversible: yes

For “Phospholipase A2, major isoenzyme H70K, P00592”, the “ddG of mutation (higher = less stable)” value (structure 1P2P) was 3.21 kcal/mol, the denaturant m value (structure 1P2P) was 0.65 kcal/mol/M and the “denaturant midpoint (higher = more stable)” value (from here on “denaturant midpoint”) (structure 1P2P) was 5.2 M. It also gave an unfolding free energy (structure 1P2P) of 3.3 kcal/mol.

In the case of “Phospholipase A2, major isoenzyme H70N, P00592”, the “ddG of mutation (higher = less stable)” value (structure 1P2P) is reported as 2.28 kcal/mol, the denaturant m value (structure 1P2P) is reported as 0.84 kcal/mol/M and the “denaturant midpoint” value (structure 1P2P) is reported as 5.1 M. For the same substance, the unfolding free energy (structure 1P2P) was 4.23 kcal/mol.

With “Phospholipase A2, major isoenzyme H70Q, P00592” the “ddG of mutation (higher = less stable)” value (structure 1P2P) was 1.03 kcal/mol, the denaturant m value (structure 1P2P) was 0.91 kcal/mol/M and the “denaturant midpoint” value (structure 1P2P) was 6.1 M. It also gave an unfolding free energy (structure 1P2P) of 5.48 kcal/mol.

For “Phospholipase A2, major isoenzyme wild type, P00592”, the denaturant m value was 1 kcal/mol/M, the “denaturant midpoint” value was 6.4 M and the unfolding free energy was 6.51 kcal/mol.
